Reference: patent publication CN110577603A (BEIJING DONGFANG BIOTECH CO LTD, dated 2019)

T1: CD19 (on Raji lymphoma cells) (UniProt P15391 20-556, limits assumed)
T1 sequence (looked up): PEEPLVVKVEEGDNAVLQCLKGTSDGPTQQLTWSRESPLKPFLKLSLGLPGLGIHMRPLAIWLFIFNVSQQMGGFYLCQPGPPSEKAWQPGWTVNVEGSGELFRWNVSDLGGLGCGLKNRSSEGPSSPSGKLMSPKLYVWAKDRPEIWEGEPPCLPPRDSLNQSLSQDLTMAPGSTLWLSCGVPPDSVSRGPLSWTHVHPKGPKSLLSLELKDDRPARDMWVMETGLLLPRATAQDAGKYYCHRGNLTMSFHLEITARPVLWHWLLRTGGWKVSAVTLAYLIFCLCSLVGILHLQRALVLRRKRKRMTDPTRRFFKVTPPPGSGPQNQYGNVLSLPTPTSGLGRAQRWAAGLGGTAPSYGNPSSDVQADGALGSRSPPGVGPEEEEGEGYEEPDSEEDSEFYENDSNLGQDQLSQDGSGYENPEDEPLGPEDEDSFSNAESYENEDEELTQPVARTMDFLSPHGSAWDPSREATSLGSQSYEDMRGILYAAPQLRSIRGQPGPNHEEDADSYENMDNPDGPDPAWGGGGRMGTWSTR


What was measured:
[1] = biological target: T1, CD19 (on Raji lymphoma cells); experiment: cell-based or functional assay
[2] = biological target: T1, CD19 (on Raji lymphoma cells); experiment: flow cytometry on Raji cells (CD19 positive), Alexa488 anti-human IgG-Fc, MFI fitted
CD3 (on Jurkat T cells) = biological target: T2, CD3 (on Jurkat T cells) (UniProt P07766 23-207); experiment: flow cytometry on Jurkat cells (CD3 positive), Alexa488 anti-human IgG-Fc, MFI fitted
T2 construct: whole, on cells; Jurkat is a human cell line; also called CD3抗原; 细胞表面CD3
T2 sequence (P07766 23-207): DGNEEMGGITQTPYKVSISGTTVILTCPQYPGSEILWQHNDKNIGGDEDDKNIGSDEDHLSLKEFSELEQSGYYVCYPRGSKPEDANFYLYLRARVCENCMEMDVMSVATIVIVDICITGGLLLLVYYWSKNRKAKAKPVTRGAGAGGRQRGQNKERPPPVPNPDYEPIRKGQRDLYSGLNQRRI

Binder | EC50 of PBMC-mediated killing of Raji cells (LDH release) [1] | EC50 [2] | EC50 (CD3 (on Jurkat T cells))
抗CD3和抗CD19双特异性抗体 JY039 (bispecific antibody, Three chains: anti-CD3 single-chain unit (full light chain - linker - full heavy chain), anti-CD19 heavy chain, anti-CD19 light chain; constant regions preferably IgG4, linker preferably (GGGGS)6; also called 双特异抗体JY039; not shown: linker (GGGGX)n, X = Gly or Ser, n = 1-6; preferred X = Ser and n = 6; IgG4 heavy chain constant region (preferred; light chain constant region of the anti-CD19 unit; …)) chain (part 1 of 2): not shown chain (part 2 of 2): not shown heavy: QVQLQQSGAELVRPGSSVKISCKASGYAFSSYWMNWVKQRPGQGLEWIGQIWPGDGDTNYNGKFKGKATLTADESSSTAYMQLSSLASEDSAVYFCARRETTTVGRYYYAMDYWGQGTTVTVSS light: DIQLTQSPASLAVSLGQRATISCKASQSVDYDGDSYLNWYQQIPGQPPKLLIYDASNLVSGIPPRFSGSGSGTDFTLNIHPVEKVDAATYHCQQSTEDPWTFGGGTKLEIK | 0.00126 nM | 1.02 nM | –
抗CD19的单克隆抗体 (built from the anti-CD19 sequences of JY039) (antibody, V domains shown, also called AntiCD19McAb; 抗CD19单克隆抗体) VH: QVQLQQSGAELVRPGSSVKISCKASGYAFSSYWMNWVKQRPGQGLEWIGQIWPGDGDTNYNGKFKGKATLTADESSSTAYMQLSSLASEDSAVYFCARRETTTVGRYYYAMDYWGQGTTVTVSS VL: DIQLTQSPASLAVSLGQRATISCKASQSVDYDGDSYLNWYQQIPGQPPKLLIYDASNLVSGIPPRFSGSGSGTDFTLNIHPVEKVDAATYHCQQSTEDPWTFGGGTKLEIK | 0.222 nM | 0.191 nM | –
v5851双特异抗体 (专利CN105531374 A) (bispecific antibody) chain 1: not shown chain 2: not shown chain 3: DIVMTQSPATLSLSPGERATLSCRSSKSLQNVNGNTYLYWFQQKPGQSPQLLIYRMSNLNSGVPDRFSGSGSGTEFTLTISSLEPEDFAVYYCMQHLEYPITFGAGTKLEIKRTVAAPSVFIFPPSDEQLKSGTASVVCLLNNFYPREAKVQWKVDNALQSGNSQESVTEQDSKDSTYSLSSTLTLSKADYEKHKVYACEVTHQGLSSPVTKSFNRGEC | 0.03 nM | 2.49 nM | 59.8 nM
